First the molecules themselves.
T1: EsCas13d, nuclease-dead (Eubacterium siraeum, UniProt B0MS50, R295A;H300A;R849A;H854A)
T1 sequence: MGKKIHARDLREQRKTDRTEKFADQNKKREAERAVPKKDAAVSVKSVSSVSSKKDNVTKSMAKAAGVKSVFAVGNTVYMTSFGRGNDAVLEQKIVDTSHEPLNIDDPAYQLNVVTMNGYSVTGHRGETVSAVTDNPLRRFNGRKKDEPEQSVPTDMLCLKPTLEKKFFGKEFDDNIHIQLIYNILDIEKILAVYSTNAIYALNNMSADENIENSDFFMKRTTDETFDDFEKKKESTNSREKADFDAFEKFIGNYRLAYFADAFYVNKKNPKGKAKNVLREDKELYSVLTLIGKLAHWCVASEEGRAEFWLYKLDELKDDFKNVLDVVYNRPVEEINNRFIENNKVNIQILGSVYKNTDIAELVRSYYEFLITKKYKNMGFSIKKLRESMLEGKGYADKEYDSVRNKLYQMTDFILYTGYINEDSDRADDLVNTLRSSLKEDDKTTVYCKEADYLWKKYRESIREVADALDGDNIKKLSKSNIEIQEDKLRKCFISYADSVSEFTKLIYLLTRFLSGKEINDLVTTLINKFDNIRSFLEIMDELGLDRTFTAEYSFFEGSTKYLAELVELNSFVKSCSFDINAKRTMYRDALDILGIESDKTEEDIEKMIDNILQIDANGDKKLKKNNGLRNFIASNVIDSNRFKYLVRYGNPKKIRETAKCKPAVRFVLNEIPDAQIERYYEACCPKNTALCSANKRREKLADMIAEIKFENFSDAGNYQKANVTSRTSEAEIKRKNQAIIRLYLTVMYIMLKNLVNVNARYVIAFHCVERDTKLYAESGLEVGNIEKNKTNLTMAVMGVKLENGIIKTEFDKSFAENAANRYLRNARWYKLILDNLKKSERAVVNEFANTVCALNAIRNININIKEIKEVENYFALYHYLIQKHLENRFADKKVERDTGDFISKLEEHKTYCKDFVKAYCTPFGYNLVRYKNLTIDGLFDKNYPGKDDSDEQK

B1: target 1 insU 3' of 18,insG 3' of 14 (mixed)
RNA 1: CACCCGUGCAAAAAUGCAGGGGUCUAAAACUGAGCGGAUAACCUCUCUAUGG
RNA 2: GGGAAUGGAUCCACAUCUACGAAUUCGUACCAUAUGAGAGGGUUAUCCGCUCACCGAGAUCGGAAGAGCACACGU
B2: target 1 insU 3' of 14,insU 3' of 6 (mixed)
RNA 1: CACCCGUGCAAAAAUGCAGGGGUCUAAAACUGAGCGGAUAACCUCUCUAUGG
RNA 2: GGGAAUGGAUCCACAUCUACGAAUUCGUACCAUAGAGAUGGUUAUCCUGCUCACCGAGAUCGGAAGAGCACACGU
B3: target 1 complement block 5-13 (mixed)
RNA 1: CACCCGUGCAAAAAUGCAGGGGUCUAAAACUGAGCGGAUAACCUCUCUAUGG
RNA 2: GGGAAUGGAUCCACAUCUACGAAUUCGUACCAUAGAGACCAAUAGGCCUCACCGAGAUCGGAAGAGCACACGU
B4: target 1 G13U,C22A (mixed)
RNA 1: CACCCGUGCAAAAAUGCAGGGGUCUAAAACUGAGCGGAUAACCUCUCUAUGG
RNA 2: GGGAAUGGAUCCACAUCUACGAAUUCGUAACAUAGAGAUGUUAUCCGCUCACCGAGAUCGGAAGAGCACACGU
B5: target 1 C4A,U8C (mixed)
RNA 1: CACCCGUGCAAAAAUGCAGGGGUCUAAAACUGAGCGGAUAACCUCUCUAUGG
RNA 2: GGGAAUGGAUCCACAUCUACGAAUUCGUACCAUAGAGAGGUUACCCGAUCACCGAGAUCGGAAGAGCACACGU
B6: target 1 C7G,A20C (mixed)
RNA 1: CACCCGUGCAAAAAUGCAGGGGUCUAAAACUGAGCGGAUAACCUCUCUAUGG
RNA 2: GGGAAUGGAUCCACAUCUACGAAUUCGUACCCUAGAGAGGUUAUGCGCUCACCGAGAUCGGAAGAGCACACGU
B7: target 1 C4A,C7U (mixed)
RNA 1: CACCCGUGCAAAAAUGCAGGGGUCUAAAACUGAGCGGAUAACCUCUCUAUGG
RNA 2: GGGAAUGGAUCCACAUCUACGAAUUCGUACCAUAGAGAGGUUAUUCGAUCACCGAGAUCGGAAGAGCACACGU
B8: target 1 U11G,C21A (mixed)
RNA 1: CACCCGUGCAAAAAUGCAGGGGUCUAAAACUGAGCGGAUAACCUCUCUAUGG
RNA 2: GGGAAUGGAUCCACAUCUACGAAUUCGUACAAUAGAGAGGGUAUCCGCUCACCGAGAUCGGAAGAGCACACGU
B9: target 1 insU 3' of 12,insC 3' of 10 (mixed)
RNA 1: CACCCGUGCAAAAAUGCAGGGGUCUAAAACUGAGCGGAUAACCUCUCUAUGG
RNA 2: GGGAAUGGAUCCACAUCUACGAAUUCGUACCAUAGAGAGGUUUCAUCCGCUCACCGAGAUCGGAAGAGCACACGU
B10: target 1 insU 3' of 17,insA 3' of 10 (mixed)
RNA 1: CACCCGUGCAAAAAUGCAGGGGUCUAAAACUGAGCGGAUAACCUCUCUAUGG
RNA 2: GGGAAUGGAUCCACAUCUACGAAUUCGUACCAUAGUAGAGGUUAAUCCGCUCACCGAGAUCGGAAGAGCACACGU
B11: target 1 U8G,C22U (mixed)
RNA 1: CACCCGUGCAAAAAUGCAGGGGUCUAAAACUGAGCGGAUAACCUCUCUAUGG
RNA 2: GGGAAUGGAUCCACAUCUACGAAUUCGUAUCAUAGAGAGGUUAGCCGCUCACCGAGAUCGGAAGAGCACACGU
B12: target 1 insU 3' of 7,insU 3' of 5 (mixed)
RNA 1: CACCCGUGCAAAAAUGCAGGGGUCUAAAACUGAGCGGAUAACCUCUCUAUGG
RNA 2: GGGAAUGGAUCCACAUCUACGAAUUCGUACCAUAGAGAGGUUAUCUCGUCUCACCGAGAUCGGAAGAGCACACGU
B13: target 1 insU 3' of 20,insU 3' of 9 (mixed)
RNA 1: CACCCGUGCAAAAAUGCAGGGGUCUAAAACUGAGCGGAUAACCUCUCUAUGG
RNA 2: GGGAAUGGAUCCACAUCUACGAAUUCGUACCAUUAGAGAGGUUAUUCCGCUCACCGAGAUCGGAAGAGCACACGU
B14: target 1 insG 3' of 18,insG 3' of 16 (mixed)
RNA 1: CACCCGUGCAAAAAUGCAGGGGUCUAAAACUGAGCGGAUAACCUCUCUAUGG
RNA 2: GGGAAUGGAUCCACAUCUACGAAUUCGUACCAUAGGAGGAGGUUAUCCGCUCACCGAGAUCGGAAGAGCACACGU
B15: target 1 insA 3' of 17,insA 3' of 11 (mixed)
RNA 1: CACCCGUGCAAAAAUGCAGGGGUCUAAAACUGAGCGGAUAACCUCUCUAUGG
RNA 2: GGGAAUGGAUCCACAUCUACGAAUUCGUACCAUAGAAGAGGUAUAUCCGCUCACCGAGAUCGGAAGAGCACACGU
B16: target 1 G5C,A9G (mixed)
RNA 1: CACCCGUGCAAAAAUGCAGGGGUCUAAAACUGAGCGGAUAACCUCUCUAUGG
RNA 2: GGGAAUGGAUCCACAUCUACGAAUUCGUACCAUAGAGAGGUUGUCCCCUCACCGAGAUCGGAAGAGCACACGU
B17: target 1 insU 3' of 13,insC 3' of 13 (mixed)
RNA 1: CACCCGUGCAAAAAUGCAGGGGUCUAAAACUGAGCGGAUAACCUCUCUAUGG
RNA 2: GGGAAUGGAUCCACAUCUACGAAUUCGUACCAUAGAGAGUCGUUAUCCGCUCACCGAGAUCGGAAGAGCACACGU
B18: target 1 complement block 10-12 (mixed)
RNA 1: CACCCGUGCAAAAAUGCAGGGGUCUAAAACUGAGCGGAUAACCUCUCUAUGG
RNA 2: GGGAAUGGAUCCACAUCUACGAAUUCGUACCAUAGAGAGCAAAUCCGCUCACCGAGAUCGGAAGAGCACACGU
B19: target 1 U8C,A14G (mixed)
RNA 1: CACCCGUGCAAAAAUGCAGGGGUCUAAAACUGAGCGGAUAACCUCUCUAUGG
RNA 2: GGGAAUGGAUCCACAUCUACGAAUUCGUACCAUAGAGGGGUUACCCGCUCACCGAGAUCGGAAGAGCACACGU
B20: target 1 insU 3' of 20,insG 3' of 16 (mixed)
RNA 1: CACCCGUGCAAAAAUGCAGGGGUCUAAAACUGAGCGGAUAACCUCUCUAUGG
RNA 2: GGGAAUGGAUCCACAUCUACGAAUUCGUACCAUUAGAGGAGGUUAUCCGCUCACCGAGAUCGGAAGAGCACACGU
B21: target 1 insC 3' of 17,insG 3' of 2 (mixed)
RNA 1: CACCCGUGCAAAAAUGCAGGGGUCUAAAACUGAGCGGAUAACCUCUCUAUGG
RNA 2: GGGAAUGGAUCCACAUCUACGAAUUCGUACCAUAGCAGAGGUUAUCCGCUCGACCGAGAUCGGAAGAGCACACGU
B22: target 1 A9C,G12A (mixed)
RNA 1: CACCCGUGCAAAAAUGCAGGGGUCUAAAACUGAGCGGAUAACCUCUCUAUGG
RNA 2: GGGAAUGGAUCCACAUCUACGAAUUCGUACCAUAGAGAGAUUCUCCGCUCACCGAGAUCGGAAGAGCACACGU
B23: target 1 A9G,A16C (mixed)
RNA 1: CACCCGUGCAAAAAUGCAGGGGUCUAAAACUGAGCGGAUAACCUCUCUAUGG
RNA 2: GGGAAUGGAUCCACAUCUACGAAUUCGUACCAUAGCGAGGUUGUCCGCUCACCGAGAUCGGAAGAGCACACGU
B24: target 1 insC 3' of 15,insU 3' of 9 (mixed)
RNA 1: CACCCGUGCAAAAAUGCAGGGGUCUAAAACUGAGCGGAUAACCUCUCUAUGG
RNA 2: GGGAAUGGAUCCACAUCUACGAAUUCGUACCAUAGAGCAGGUUAUUCCGCUCACCGAGAUCGGAAGAGCACACGU
B25: target 1 del9,del22 (mixed)
RNA 1: CACCCGUGCAAAAAUGCAGGGGUCUAAAACUGAGCGGAUAACCUCUCUAUGG
RNA 2: GGGAAUGGAUCCACAUCUACGAAUUCGUACAUAGAGAGGUUUCCGCUCACCGAGAUCGGAAGAGCACACGU
B26: target 1 insG 3' of 7,insG 3' of 7 (mixed)
RNA 1: CACCCGUGCAAAAAUGCAGGGGUCUAAAACUGAGCGGAUAACCUCUCUAUGG
RNA 2: GGGAAUGGAUCCACAUCUACGAAUUCGUACCAUAGAGAGGUUAUCGGCGCUCACCGAGAUCGGAAGAGCACACGU
B27: target 1 insU 3' of 6,insU 3' of 6 (mixed)
RNA 1: CACCCGUGCAAAAAUGCAGGGGUCUAAAACUGAGCGGAUAACCUCUCUAUGG
RNA 2: GGGAAUGGAUCCACAUCUACGAAUUCGUACCAUAGAGAGGUUAUCCUUGCUCACCGAGAUCGGAAGAGCACACGU

The text below walks through data of paper PMC10786891, “Massively parallel profiling of RNA-targeting CRISPR-Cas13d”.

The target in the data set is T1, EsCas13d, nuclease-dead. The data set can be described thus: crRNA (strand 1, pre-loaded); Mg2+; 40 mM Tris-HCl pH 7.5, 150 mM NaCl, 6 mM MgCl2, 1 mM DTT, 0.1% Tween-20, 0.2 mg/ml BSA; 25 C; 10 min per concentration, then washed. Conditions: tags: His6-TwinStrep-SUMO cleaved; N-terminal SNAP kept (SNAP-Surface 488); label: 3' end held by stalled T7 RNA polymerase.
For B1, binding was put at a Kd of 46 ± 3 nM.
The figure for B2 is 61 ± 8 nM.
The same measure for B3: about 80 nM.
The figure for B4 is 63 ± 27 nM.
Regarding B5, binding was put at a Kd of 5.2 ± 0.6 nM.
The same measure for B6: 86 ± 30 nM; for B7: 3.39 ± 0.26 nM.
The same measure for B8: 64 ± 12 nM.
Turning to B9, the Kd worked out at 45 ± 6 nM.
The figure for B10 is 25.2 ± 3.4 nM.
The same measure for B11: 29.7 ± 2.6 nM; for B12: 14.5 ± 0.5 nM; for B13: 20.5 ± 1.2 nM.
The same measure for B14: 55 ± 9 nM; for B15: 24.5 ± 1.7 nM.
For B16, the dissociation constant Kd amounted to 8.9 ± 0.5 nM.
The same measure for B17: 8.6 ± 0.5 nM.
The figure for B18 is 6.8 ± 0.4 nM; for B19 it is 25.7 ± 2 nM.
The figure for B20 is 36 ± 4 nM; for B21 it is about 38 nM; for B22 it is 16.6 ± 1.9 nM.
With B23, the dissociation constant Kd is 36.4 ± 1.8 nM.
The same measure for B24: 14.4 ± 0.8 nM; for B25: 69 ± 9 nM; for B26: 9.8 ± 0.5 nM.
Consider B27, for which the Kd was 11.7 ± 0.7 nM.

As usually defined, the Kd is the constant that tells how readily two partners part at equilibrium.
